Experimental data taken from paper PMC10721106, “Structure of the siphophage neck–Tail complex suggests that conserved tail tip proteins facilitate receptor binding and tail assembly” (PLOS Biology, 2023).

T1: tail tube protein gpV (bacteriophage lambda), P03733
T1 chain: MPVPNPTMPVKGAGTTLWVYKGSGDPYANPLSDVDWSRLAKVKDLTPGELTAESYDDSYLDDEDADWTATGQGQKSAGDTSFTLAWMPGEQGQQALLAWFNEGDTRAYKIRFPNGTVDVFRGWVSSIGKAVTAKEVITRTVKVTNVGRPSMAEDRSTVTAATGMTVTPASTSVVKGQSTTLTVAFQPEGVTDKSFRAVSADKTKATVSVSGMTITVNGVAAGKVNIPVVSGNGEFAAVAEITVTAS

T2: cementing protein gpD (bacteriophage lambda), P03712
T2 chain: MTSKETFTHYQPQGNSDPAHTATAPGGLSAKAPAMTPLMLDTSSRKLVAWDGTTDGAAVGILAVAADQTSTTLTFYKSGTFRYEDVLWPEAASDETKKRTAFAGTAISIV

B1: tail tube protein gpV, P03733 1-246 (natural protein)
chain: T1 chain
B2: cementing protein gpD (natural protein)
chain: T2 chain
notes: cementing (decoration) protein gpD of bacteriophage lambda, trimers on the capsid shell of the mature virion; also called head protein gpD; source: lambda W60 phage grown on E. coli MG1655; virions purified (PEG 8000 precipitation, CsCl gradient)
B3: coat protein gpE (natural protein, bacteriophage lambda, UniProt P03713 1-341, looked up)
chain: MSMYTTAQLLAANEQKFKFDPLFLRLFFRESYPFTTEKVYLSQIPGLVNMALYVSPIVSGEVIRSRGGSTSEFTPGYVKPKHEVNPQMTLRRLPDEDPQNLADPAYRRRRIIMQNMRDEELAIAQVEEMQAVSAVLKGKYTMTGEAFDPVEVDMGRSEENNITQSGGTEWSKRDKSTYDPTDDIEAYALNASGVVNIIVFDPKGWALFRSFKAVKEKLDTRRGSNSELETAVKDLGKAVSYKGMYGDVAIVVYSGQYVENGVKKNFLPDNTMVLGNTQARGLRTYGCIQDADAQREGINASARYPKNWVTTGDPAREFTMIQSAPLMLLADPDEFVSVQLA
notes: major capsid (coat) protein gpE of bacteriophage lambda, as it stands in the mature virion; The introduction gives 415 copies in the head (cited); also called major capsid protein gpE; head protein gpE; source: lambda W60 phage grown on E. coli MG1655; virions purified (PEG 8000 precipitation, CsCl gradient)
B4: tail terminal protein gpU (natural protein, bacteriophage lambda, UniProt P03732 1-131, looked up)
chain: MKHTELRAAVLDALEKHDTGATFFDGRPAVFDEADFPAVAVYLTGAEYTGEELDSDTWQAELHIEVFLPAQVPDSELDAWMESRIYPVMSDIPALSDLITSMVASGYDYRRDDDAGLWSSADLTYVITYEM
notes: tail terminal protein gpU of bacteriophage lambda; all 131 residues modelled; O-loop 25-37, E-loop 45-58; also called tail terminator; source: lambda W60 phage grown on E. coli MG1655; virions purified (PEG 8000 precipitation, CsCl gradient)
B5: stopper protein gpFII (natural protein, bacteriophage lambda)
chain: MADFDNLFDAAIARADETIRGYMGTSATITSGEQSGAVIRGVFDDPENISYAGQGVRVEGSSPSLFVRTDEVRQLRRGDTLTIGEENFWVDRVSPDDGGSCHLWLGRGVPPAVNRRR
notes: stopper protein gpFII of bacteriophage lambda, 117-residue protein, residues 4-117 resolved; domains: N-terminal α-helix 4-24, β-sandwich 25-41 and 63-107, β-hairpin 46-62, C-terminal loop 108-117; also called neck protein gpFII; source: lambda W60 phage grown on E. coli MG1655; virions purified (PEG 8000 precipitation, CsCl gradient)
B6: distal tail protein gpM (natural protein, bacteriophage lambda, UniProt P03737 1-109, looked up)
chain: MKTFRWKVKPGMDVASVPSVRKVRFGDGYSQRAPAGLNANLKTYSVTLSVPREEATVLESFLEEHGGWKSFLWTPPYEWRQIKVTCAKWSSRVSMLRVEFSAEFEQVVN
notes: distal tail protein gpM of bacteriophage lambda; all 109 residues resolved; two conformers that differ in the E-loop; source: lambda W60 phage grown on E. coli MG1655; virions purified (PEG 8000 precipitation, CsCl gradient)
B7: central fiber protein gpJ (natural protein, bacteriophage lambda, UniProt P03749 1-1132, looked up)
chain: MGKGSSKGHTPREAKDNLKSTQLLSVIDAISEGPIEGPVDGLKSVLLNSTPVLDTEGNTNISGVTVVFRAGEQEQTPPEGFESSGSETVLGTEVKYDTPITRTITSANIDRLRFTFGVQALVETTSKGDRNPSEVRLLVQIQRNGGWVTEKDITIKGKTTSQYLASVVMGNLPPRPFNIRMRRMTPDSTTDQLQNKTLWSSYTEIIDVKQCYPNTALVGVQVDSEQFGSQQVSRNYHLRGRILQVPSNYNPQTRQYSGIWDGTFKPAYSNNMAWCLWDMLTHPRYGMGKRLGAADVDKWALYVIGQYCDQSVPDGFGGTEPRITCNAYLTTQRKAWDVLSDFCSAMRCMPVWNGQTLTFVQDRPSDKTWTYNRSNVVMPDDGAPFRYSFSALKDRHNAVEVNWIDPNNGWETATELVEDTQAIARYGRNVTKMDAFGCTSRGQAHRAGLWLIKTELLETQTVDFSVGAEGLRHVPGDVIEICDDDYAGISTGGRVLAVNSQTRTLTLDREITLPSSGTALISLVDGSGNPVSVEVQSVTDGVKVKVSRVPDGVAEYSVWELKLPTLRQRLFRCVSIRENDDGTYAITAVQHVPEKEAIVDNGAHFDGEQSGTVNGVTPPAVQHLTAEVTADSGEYQVLARWDTPKVVKGVSFLLRLTVTADDGSERLVSTARTTETTYRFTQLALGNYRLTVRAVNAWGQQGDPASVSFRIAAPAAPSRIELTPGYFQITATPHLAVYDPTVQFEFWFSEKQIADIRQVETSTRYLGTALYWIAASINIKPGHDYYFYIRSVNTVGKSAFVEAVGRASDDAEGYLDFFKGKITESHLGKELLEKVELTEDNASRLEEFSKEWKDASDKWNAMWAVKIEQTKDGKHYVAGIGLSMEDTEEGKLSQFLVAANRIAFIDPANGNETPMFVAQGNQIFMNDVFLKRLTAPTITSGGNPPAFSLTPDGKLTAKNADISGSVNANSGTLSNVTIAENCTINGTLRAEKIVGDIVKAASAAFPRQRESSVDWPSGTRTVTVTDDHPFDRQIVVLPLTFRGSKRTVSGRTTYSMCYLKVLMNGAVIYDGAANEAVQVFSRIVDMPAGRGNVILTFTLTSTRHSADIPPYTFASDVQVMVIKKQALGISVV
notes: central fiber protein gpJ of bacteriophage lambda in the virion; domains HDII, HDII-insertion (with FNIII-A, residues 72-215), HDIII, HDIV (with a β-sandwich, residues 483-569), linker, FNIII-1, FNIII-2, three-helix bundle; source: lambda W60 phage grown on E. coli MG1655; virions purified (PEG 8000 precipitation, CsCl gradient)
B8: insertion protein gpI (natural protein, bacteriophage lambda, UniProt P03730 1-223, looked up)
chain: MAATHTLPLASPGMARICLYGDLQRFGRRIDLRVKTGAEAIRALATQLPAFRQKLSDGWYQVRIAGRDVSTSGLTAQLHETLPDGAVIHIVPRVAGAKSGGVFQIVLGAAAIAGSFFTAGATLAAWGAAIGAGGMTGILFSLGASMVLGGVAQMLAPKARTPRIQTTDNGKQNTYFSSLDNMVAQGNVLPVLYGEMRVGSRVVSQEISTADEGDGGQVVVIGR
notes: insertion protein gpI of bacteriophage lambda in the virion; source: lambda W60 phage grown on E. coli MG1655; virions purified (PEG 8000 precipitation, CsCl gradient)
B9: tape measure protein gpH (natural protein, bacteriophage lambda, UniProt P03736 1-853, looked up)
chain: MAEPVGDLVVDLSLDAARFDEQMARVRRHFSGTESDAKKTAAVVEQSLSRQALAAQKAGISVGQYKAAMRMLPAQFTDVATQLAGGQSPWLILLQQGGQVKDSFGGMIPMFRGLAGAITLPMVGATSLAVATGALAYAWYQGNSTLSDFNKTLVLSGNQAGLTADRMLVLSRAGQAAGLTFNQTSESLSALVKAGVSGEAQIASISQSVARFSSASGVEVDKVAEAFGKLTTDPTSGLTAMARQFHNVSAEQIAYVAQLQRSGDEAGALQAANEAATKGFDDQTRRLKENMGTLETWADRTARAFKSMWDAVLDIGRPDTAQEMLIKAEAAYKKADDIWNLRKDDYFVNDEARARYWDDREKARLALEAARKKAEQQTQQDKNAQQQSDTEASRLKYTEEAQKAYERLQTPLEKYTARQEELNKALKDGKILQADYNTLMAAAKKDYEATLKKPKQSSVKVSAGDRQEDSAHAALLTLQAELRTLEKHAGANEKISQQRRDLWKAESQFAVLEEAAQRRQLSAQEKSLLAHKDETLEYKRQLAALGDKVTYQERLNALAQQADKFAQQQRAKRAAIDAKSRGLTDRQAEREATEQRLKEQYGDNPLALNNVMSEQKKTWAAEDQLRGNWMAGLKSGWSEWEESATDSMSQVKSAATQTFDGIAQNMAAMLTGSEQNWRSFTRSVLSMMTEILLKQAMVGIVGSIGSAIGGAVGGGASASGGTAIQAAAAKFHFATGGFTGTGGKYEPAGIVHRGEFVFTKEATSRIGVGNLYRLMRGYATGGYVGTPGSMADSRSQASGTFEQNNHVVINNDGTNGQIGPAALKAVYDMARKGARDEIQTQMRDGGLFSGGGR
notes: tape measure protein gpH of bacteriophage lambda in the virion; only a C-terminal α-helix modelled (residues 818-842 in the results, 818-849 in the methods); source: lambda W60 phage grown on E. coli MG1655; virions purified (PEG 8000 precipitation, CsCl gradient)
B10: portal protein gpB (natural protein, bacteriophage lambda, UniProt P03710 23-533, looked up)
chain: GYHGGGSGFGGQLRSWNPPSESVDAALLPNFTRGNARADDLVRNNGYAANAIQLHQDHIVGSFFRLSHRPSWRYLGIGEEEARAFSREVEAAWKEFAEDDCCCIDVERKRTFTMMIREGVAMHAFNGELFVQATWDTSSSRLFRTQFRMVSPKRISNPNNTGDSRNCRAGVQINDSGAALGYYVSEDGYPGWMPQKWTWIPRELPGGRASFIHVFEPVEDGQTRGANVFYSVMEQMKMLDTLQNTQLQSAIVKAMYAATIESELDTQSAMDFILGANSQEQRERLTGWIGEIAAYYAAAPVRLGGAKVPHLMPGDSLNLQTAQDTDNGYSVFEQSLLRYIAAGLGVSYEQLSRNYAQMSYSTARASANESWAYFMGRRKFVASRQASQMFLCWLEEAIVRRVVTLPSKARFSFQEARSAWGNCDWIGSGRMAIDGLKEVQEAVMLIEAGLSTYEKECAKRGDDYQEIFAQQVRETMERRAAGLKPPAWAAAAFESGLRQSTEEEKSDSRAA
notes: portal protein gpB of bacteriophage lambda in the mature virion; modelled without 23 N-terminal residues, 20 C-terminal residues and the loop 303-319; domains: wing 24-249 and 368-452, stem 250-279 and 343-367, clip 280-342, crown 453-511; source: lambda W60 phage grown on E. coli MG1655; virions purified (PEG 8000 precipitation, CsCl gradient); copies: 12
B11: adaptor protein gpW (natural protein, bacteriophage lambda)
chain: MTRQEELAAARAALHDLMTGKRVATVQKDGRRVEFTATSVSDLKKYIAELEVQTGMTQRRRGPAGFYV
notes: adaptor protein gpW of bacteriophage lambda, 68-residue protein, residues 4-68 resolved; domains: β-hairpin 23-36, two-α-helix bundle 4-22 and 37-54, C-arm 55-68; also called neck protein gpW; source: lambda W60 phage grown on E. coli MG1655; virions purified (PEG 8000 precipitation, CsCl gradient); copies: 12

Key:
[1] = biological target: T1, tail tube protein gpV (bacteriophage …); assay: cryo-EM structure; purified lambda virions; local reconstruction of the tail tube (RELION), 3.48 Å; conditions: remark: other sources report otherwise
[2] = biological target: T2, cementing protein gpD (bacteriophage …); assay: cryo-EM structure; purified lambda virions; icosahedral reconstruction of the head, 3.5 Å; conditions: remark: other sources report otherwise
[3] = biological target: B3; assay: as above; conditions: both partners purified
[4] = biological target: the molecule itself; assay: as above
[5] = biological target: the molecule itself; assay: cryo-EM structure; purified lambda virions; local reconstruction of the neck: gpFII, gpU and 2 proximal gpV rings, 3.5 Å
[6] = biological target: B4; assay: as above; conditions: both partners purified
[7] = biological target: the molecule itself; assay: cryo-EM structure; purified lambda virions; local reconstruction of the tail tip complex with C3 symmetry (RELION), 3.44 Å
[8] = biological target: the molecule itself; assay: cryo-EM structure; purified lambda virions; local reconstruction of the gpB (portal) and gpW (adaptor) rings with 12-fold symmetry, 3.2 Å

B1
stoichiometry N [1]: 6

B2
stoichiometry N [2]: 3
binding result [3]: binds

B3
binding result [4]: binds

B4
stoichiometry N [5]: 6

B5
stoichiometry N [5]: 6
binding result [6]: binds

B6
stoichiometry N [7]: 6

B7
stoichiometry N [7]: 3

B8
stoichiometry N [7]: 3

B9
stoichiometry N [7]: 3

B10
stoichiometry N [8]: 12

B11
stoichiometry N [8]: 12
